Our source for the Kd values is PMC10510648.

A word on the Kd: it is the free concentration of one partner at which half of the binding sites on the other are occupied at equilibrium, for simple one-to-one binding.

The subject of series [1] is RirA wild type (Rhizobium leguminosarum strain 8401). Kind of series: SPR. The settings on record: SPR: 10 mM Hepes, 150 mM NaCl, 0.05% Tween, pH 7.4, 20 °C, 0-125 nM dimer; EMSA: 10 mM Hepes, 50 mM NaCl, 2.5% sucrose, 2.5 mM MgCl2, 1 mM DTT, pH 7.9, on ice …. On the technique in general: In EMSA bound probe runs differently from free probe, usually more slowly.
Series [2] deals with RirA N8D (Rhizobium leguminosarum strain 8401?). As to the kind of experiment: SPR. The settings on record: SPR: 10 mM Hepes, 150 mM NaCl, 0.05% Tween, pH 7.4, 20 °C, 0-125 nM dimer; EMSA: 10 mM Hepes, 50 mM NaCl, 2.5% sucrose, 2.5 mM MgCl2, 1 mM DTT, pH 7.9, on ice ….

Take fhuA IRO box 30 bp SPR oligo: the Kd came to 12.8 nM in series [1] and 10.3 nM in series [2].
